Assay results published in paper doi:10.1101/2024.08.14.606984 (bioRxiv, 2024).

Target: the molecule itself
Experiment: SEC

B1: GCN2^K619R, kinase dead mutant of human General Control Non-derepressible 2 (GCN2) (enzyme, UniProt Q9P2K8 1-1649, looked up)
chain: MAGGRGAPGRGRDEPPESYPQRQDHELQALEAIYGADFQDLRPDACGPVKEPPEINLVLYPQGLTGEEVYVKVDLRVKCPPTYPDVVPEIELKNAKGLSNESVNLLKSRLEELAKKHCGEVMIFELAYHVQSFLSEHNKPPPKSFHEEMLERRAQEEQQRLLEAKRKEEQEQREILHEIQRRKEEIKEEKKRKEMAKQERLEIASLSNQDHTSKKDPGGHRTAAILHGGSPDFVGNGKHRANSSGRSRRERQYSVCNSEDSPGSCEILYFNMGSPDQLMVHKGKCIGSDEQLGKLVYNALETATGGFVLLYEWVLQWQKKMGPFLTSQEKEKIDKCKKQIQGTETEFNSLVKLSHPNVVRYLAMNLKEQDDSIVVDILVEHISGVSLAAHLSHSGPIPVHQLRRYTAQLLSGLDYLHSNSVVHKVLSASNVLVDAEGTVKITDYSISKRLADICKEDVFEQTRVRFSDNALPYKTGKKGDVWRLGLLLLSLSQGQECGEYPVTIPSDLPADFQDFLKKCVCLDDKERWSPQQLLKHSFINPQPKMPLVEQSPEDSEGQDYVETVIPSNRLPSAAFFSETQRQFSRYFIEFEELQLLGKGAFGAVIKVQNKLDGCCYAVRRIPINPASRQFRRIKGEVTLLSRLHHENIVRYYNAWIERHERPAGPGTPPPDSGPLAKDDRAARGQPASDTDGLDSVEAAAPPPILSSSVEWSTSGERSASARFPATGPGSSDDEDDDEDEHGGVFSQSFLPASDSESDIIFDNEDENSKSQNQDEDCNEKNGCHESEPSVTTEAVHYLYIQMEYCEKSTLRDTIDQGLYRDTVRLWRLFREILDGLAYIHEKGMIHRDLKPVNIFLDSDDHVKIGDFGLATDHLAFSADSKQDDQTGDLIKSDPSGHLTGMVGTALYVSPEVQGSTKSAYNQKVDLFSLGIIFFEMSYHPMVTASERIFVLNQLRDPTSPKFPEDFDDGEHAKQKSVISWLLNHDPAKRPTATELLKSELLPPPQMEESELHEVLHHTLTNVDGKAYRTMMAQIFSQRISPAIDYTYDSDILKGNFSIRTAKMQQHVCETIIRIFKRHGAVQLCTPLLLPRNRQIYEHNEAALFMDHSGMLVMLPFDLRIPFARYVARNNILNLKRYCIERVFRPRKLDRFHPKELLECAFDIVTSTTNSFLPTAEIIYTIYEIIQEFPALQERNYSIYLNHTMLLKAILLHCGIPEDKLSQVYIILYDAVTEKLTRREVEAKFCNLSLSSNSLCRLYKFIEQKGDLQDLMPTINSLIKQKTGIAQLVKYGLKDLEEVVGLLKKLGIKLQVLINLGLVYKVQQHNGIIFQFVAFIKRRQRAVPEILAAGGRYDLLIPQFRGPQALGPVPTAIGVSIAIDKISAAVLNMEESVTISSCDLLVVSVGQMSMSRAINLTQKLWTAGITAEIMYDWSQSQEELQEYCRHHEITYVALVSDKEGSHVKVKSFEKERQTEKRVLETELVDHVLQKLRTKVTDERNGREASDNLAVQNLKGSFSNASGLFEIHGATVVPIVSVLAPEKLSASTRRRYETQVQTRLQTSLANLHQKSSEIEILAVDLPKETILQFLSLEWDADEQAFNTTVKQLLSRLPKQRYLKLVCDEIYNIKVEKKVSVLFLYSYRDDYYRILF
stoichiometry N: 2
